Experimental data: patent publication US20230001007A1, “Glycan-Interacting Compounds and Methods of Use” (Seagen Inc., priority 2017, published 2023)

Legend:
SW403 = test: STn expression on CRC line by flow cytometry using anti-STn antibodies; assay type: cell-based; conditions: detected using mSIA103
Description: (§1) Mouse antibodies were characterized for in vitro and in vivo efficacy in breast, colon and ovarian cancer models. The antibodies were used to identify CRC cell lines that express STn on the surface. Five CRC lines were incubated in vitro and grown to confluency. % STn expression was determined by flow cytometry using anti-STn antibodies. Approximately 30-70% of cultured SW403, COL0205 and LS174T cells naturally expressed STn on the surface (as detected using mSIA103), while HT29 and RKO had very little to no detectable STn (as detected using hSIA101) on their cell surface (see Table 6).

COLO205 = test: as above; assay type: cell-based; conditions: detected using mSIA103
Description: as §1

LS174T = test: as above; assay type: cell-based; conditions: detected using mSIA103
Description: as §1

[1] = test system: CRC Tissue Microarray (TMA) cores; test: CRC Tissue Microarray staining for STn with and without neuraminidase; assay type: binding
Text: Further, a CRC Tissue Microarray (TMA) (NBP2-30214; Novus Bio, Littleton, Colo.) was stained for STn expression. The array consists of 59 cores with and without a neuraminidase (sialidase) enzyme treatment. Neuraminidase specifically cleaves terminal sialic acids and destroys STn antigen present on the tissue.

[2] = test system: array glycans (AcSTn, GcSTn, Tn and others); test: Glycan array analysis; assay type: binding; design: key: Group 1: capable of binding AcSTn and GcSTn, if they bind to glycans 5, 6, 23 and 24; Group 2: capable of binding STn as well as some related structures that include an O-linkage to serine or threonine, if they bind to glycans 5, 6, 23, 24, 27 and 31; Group 3: capable of binding STn, but may also bind a broader set of related structures) if they bind glycans 5, 6, 23, 24, 17, 3, 19, 37, 27 and 31; Group 4: capable of binding to both AcSTn and GcSTn as well as the un-sialylated Tn antigen (therefore having broader specificity) if they bind to glycans 5, 6, 23, 24 and 47
Description: Optimized glycan arrays are utilized to test antibody affinity and specificity for multiple glycans in a single experiment. Glycan arrays include 71 chemically synthesized and well-defined glycans, most of which are Neu5Ac and Neu5Gc glycan pairs.
300 ml of epoxy blocking buffer is prepared by combining 15 ml of 2 M Tris buffer (pH 8) with 0.9 ml of 16.6 M ethanolamine and 284.1 ml of distilled water. The solution is brought to a final pH of 9.0 with HCl. The solution is filtered using a […] nitrocellulose membrane. The epoxy buffer solution as well as 1 L of distilled water are pre-warmed to 50° C. Glass slides are arranged in a slide holder and quickly submerged in a staining tub with the warmed epoxy blocking buffer. Slides are incubated in the epoxy blocking buffer for 1 hour at 50° C. with periodic shaking to deactivate epoxy binding sites. Next, slides are rinsed and blocked with PBS with 1% OVA at 25° C. for one hour. Serum samples with polyclonal antibodies (1:1000) or purified monoclonal antibodies (1 ug/mL), are diluted in PBS with 1% OVA and added to the glycan array for one hour at 25° C. After extensive washing, binding of antibodies are detected by incubating glycan microarray slides with Cy3-conjugated anti-mouse IgG (Jackson Immunoresearch, West Grove, Pa.) for one hour. Slides are then washed extensively, dried and scanned with a Genepix 4000B scanner (Laser at 100%; gain at 350; 10 μm pixels). Raw data from scanned images are extracted using the Genepix software and analysis of raw data is carried out.
Based on array analysis, antibodies are classified according to array glycan binding profile. Antibodies are classified as “Group 1” antibodies, capable of binding AcSTn and GcSTn, if they bind to glycans 5, 6, 23 and 24. Such antibodies are referred to as Pan-STn antibodies due to their ability to associate with a wider range of STn structures and the portion of STn indicated by the largest ellipse in FIG. 1A. […]

[3] = test system: MDA-MB-231 cells transfected for enhanced expression of STn (STn positive cells); test: ADC cytotoxicity assay ([…]-GLO); assay type: cell-based; conditions: MMAE-conjugated ADC versions; 72 hours; kill of STn positive cells
Description: MMAE-conjugated ADC versions of hSIA101, hSIA102, and hSIA103 were assessed in an ADC cytotoxicity assay using MDA-MB-231 cells (parental or transfected for enhanced expression of STn). Parental cells were grown in Eagle's Minimum Essential Medium (EMEM) supplemented with 10% FBS, lx Pen/Strep and 45 μg/mL gentamycin. STn positive cells were grown in the same media except with the addition of 1 mg/mL G418 for antibiotic selection. Cells were seeded separately (4,000 cells/well for parental cells or 2,000/well for STn positive cells) in 96-well plates using proper media described above. Cells were grown overnight. After 16-20 hours, cells were treated with varying concentrations of test antibodies in triplicate (50 nM to 0.012 nM) for 72 hours. Then, cells were analyzed using an ADC […]-GLO® luminescent cell viability assay kit (Promega, Madison, Wis.) to determine the amount of ATP present, an indicator of metabolically active cells. The assay uses a single reagent that is added directly to the cultured cells in serum-supplemented medium. The reagent lyses the cells and generates a luminescent signal proportional to the amount of ATP present. Luminescent signals were analyzed and used to calculate the half-maximal inhibitory concentration (IC50) values for each antibody used based on the concentration required to kill STn positive cells at half-maximal levels (see Table 9).

MDA-MB-231-STn cells = test: Flow cytometry-based binding analysis; conditions: 0 to 300 nM, read-out: MDA-MB-231-STn cell binding [EC50 (nM)]
Description: Humanized IgG1 antibodies, prepared as described above, were subjected to characterization analysis including flow cytometry-based binding analysis with MDA-MB-231-STn cells; binding analysis by BSM ELISA; and glycan array analysis.
In flow cytometry-based binding studies, antibodies were screened over a concentration range of 0 to 300 nM, comparing binding to MDA-MB-231 cells with or without transfection-induced STn expression. Binding was determined using an anti-human APC conjugated secondary antibody and only live cells were considered (based on propidium iodide negative gating). 5,000 events were collected per sample on average. Data were analyzed using FlowJo software (Asland, Oreg.) and resulting APC means and % APC were obtained. […] Human isotype IgG1 antibody was used as an isotype negative control. Epidermal growth factor receptor (LA22, EMD Millipore, Billerica, Mass.) was used as a positive control.

[4] = test system: bovine submaxillary mucin (BSM); test: BSM ELISA, periodate-sensitive STn binding
Description: For BSM ELISA analysis, antibodies were screened over a concentration range of 0 to 100 nM on bovine submaxillary mucin (BSM) coated wells. A subset of wells were treated with mild periodate solution before antibody introduction to remove the side chain on terminal sialic acid residues (destroying the STn antigen). Optical densities of periodate and non-periodate-treated wells were determined and log transformed then fit to a nonlinear regression model to obtain a dose response curve. Optical density values obtained from periodate-treated wells were subtracted from non-periodate treated wells to obtain a periodate-sensitive STn binding curve and corresponding EC50 values.

Molecule	% STn expression (SW403) [%]	% STn expression (COLO205) [%]	% STn expression (LS174T) [%]	staining on normal colon ([1]; 8 cores)	staining after neuraminidase treatment ([1]; 250 mU/mL neuraminidase, all 45 positive cores)	neoplastic cores with some level of positive membrane staining ([1]; out of the 51 neoplastic cores on the TMA)	Array glycan binding profile [2]	IC50 [3] [nM]	EC50 (MDA-MB-231-STn cells) [nM]	periodate sensitivity of binding in ELISA assays [4]	EC50 ([4]; periodate-sensitive STn binding curve, 0 to 100 nM) [nM]
mSIA103: mouse IgG2a anti-STn antibody, VH SEQ ID NO: 5, VL SEQ ID NO: 6; variable domains from 3F1 IgG1 antibodies (antibody, V domains shown, mouse IgG2a constant regions, variable domains from 3F1 IgG1 antibodies) VH: QVQLQQSDAELVKPGASVKISCKASGYTFTDHAIHWVKQKPEQGLDWIGYISPGNGDIKYNEKFKDKVTLTADKSSSTACMHLNSLTSEDSAVYFCKRSLLALDYWGQGTTLTVSS VL: DIVMTQSHKFMSTSVGDRVSITCKASQDVGTNIAWYQQKPGRSPKVLIYSASTRHTGVPDRFTGSGSGTDFTLTISNVQSEDLTDYFCQQYSSFPLTFGVGTKLELK	30.0	67.7	69.9	restricted to crypt and surface mucosa	abolished	45					
hSIA102 (antibody, V domains shown) VH: QVQLVQSGAEVKKPGASVKISCKASGYTFTDHAIHWVRQAPGQGLEWIGYFSPGNDDIKYNEKFKVRATLTADKSSSTAYMELRSLRSDDTAVYFCKRSYYGDWGQGTLVTVSS VL: DIQMTQSPSSLSASVGDRVTITCRASENIYSHLAWYQQKPGKAPKLLVYGATNLASGVPSRFSGSGSGTQFTLTISSLQPEDFATYYCQHFWGAPFTFGQGTKVEIK							Group 4	2.6	0.1	not periodate sensitive	
hSIA103 (antibody, V domains shown) VH: QVQLVQSGAEVKKPGASVKVSCKASGYTFTDHAIHWVRQAPGQGLEWMGYISPGNGDIKYNEKFKDRVTMTADKSSSTAYMQLRSLRSDDTAVYFCKRSLLALDYWGQGTLVTVSS VL: DIQMTQSPSSLSASVGDRVTITCKASQDVGTNIAWYQQKPGKAPKVLIYSASTRHTGVPSRFSGSGSGTDFTLTISSLQPEDFATYFCQQYSSFPLTFGQGTKVEIK							Group 1	1.3	0.3		1.8
